Patent publication US20250230239A1
Substitutions are numbered along the chain they refer to.

B1: monovalent bispecific antibody comprising anti-CD3 scFv v619_HLh (SEQ ID NO: 28) and a Her2-binding domain (bispecific antibody, part only; not given: Her2 arm and Fc, not shown: another chain or arm of the molecule; a dimerising Fc or GST; small tags and cut ends)
scFv: EVQLVESGGGLVQPGGSLKLSCAASGFTFSTYAMNWVRQASGKGLEWVGRIRSKYNNYATYYADSVKDRFTISRDDSKNTAYLQMNSLKTEDTAVYYCVRHGNFGNSYVSWWAYWGQGTLVTVSSGGGGSGGGGSGGGGSQTVVTQEPSLTVSPGGTVTLTCGSSTGAVTTSNYVNWVQQKPGQAPRGLIGGTNKRAPGTPARFSGSLIGGKAALTLSGAQPEDEAEYYCVLWYSNRWVFGGGTKLTVL
B2: monovalent bispecific antibody comprising anti-CD3 scFv v619-HLh-CC4 (SEQ ID NO: 32) and a Her2-binding domain (bispecific antibody, part only; not given: Her2 arm and Fc, not shown: another chain or arm of the molecule; a dimerising Fc or GST; small tags and cut ends)
scFv: B1 scFv with W112F, Q117C, Q184C
modifications: Engineered VH-VL disulfide (Cys at VH 117 and VL 44 of the domains) within the scFv

Molecular target: recombinant his-tagged and biotinylated CD3ε protein (AcroBiosystems, CDE-H8223), human (human) (UniProt P07766)
Sequence (P07766 23-126 limits assumed): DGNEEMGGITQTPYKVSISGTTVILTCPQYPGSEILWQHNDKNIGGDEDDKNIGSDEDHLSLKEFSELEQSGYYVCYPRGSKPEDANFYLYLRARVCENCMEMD
Assay: BLI (Octet RED96), biotinylated his-tagged CD3ε on SSA biosensor, bispecific as analyte 200 to 3.125 nM

Binder | Kd [nM]
B1 | 1.66 to 5.64
B2 | 11
